In patent WO2013125221A1:
Where no end group is shown, it is not given here.

Assays:
[1] = biological target: Herceptin scFv antibody (His-tagged, self-prepared); assay: peptide magnetic bead immunoprecipitation, SDS-PAGE / anti-His blot, band intensity semi-quantified
[2] = biological target: Herceptin scFv antibody (His-tagged, self-prepared); assay: peptide magnetic bead immunoprecipitation, SDS-PAGE / anti-His blot, semi-quantitative

Herceptin scFv antibody recovery rate [1] [%] | Herceptin scFv antibody recovery rate [2] [%] | Binder
30 |  | FHRSHWYQTWVP (also: biotinylated (site not given here)) [code 166 peptide]
30 | 23 | WSEYDIPTPQIP (also: biotinylated (site not given here)) [code 4 peptide]
